The source of these data is US8716237B2, “Methods for the treatment or prevention of hemorrhagic conditions” (University of Rochester, priority 2007, dated 2014).

The subject of data set [1] is Cyld−/− mice. Description: Survival of Cyld−/− mice inoculated with S. pneumoniae after pretreatment. The note with it: wedelolactone 10 mg/kg intraperitoneally 2 hours before S.p. inoculation. The data set is classed as in vivo, mouse. How it is done:
(§1) For S. pneumoniae-induced lethal infections in wild type, Cyld^−/−, Mkk3^−/−, and PAI-1^−/− mice, anaesthetized mice were intratracheally inoculated with live S. pneumoniae, S. pneumoniae wild type or pneumolysin mutant lysate, or pneumolysin (“PLY”), at a concentration of 5×10^7CFU per mouse for live bacteria and bacterial lysate and 200 ng/mouse for PLY in all experiments unless otherwise indicated, and saline was inoculated as control. The mice were monitored for lethality every 2 hours for the first 12 hours and every 12 hours for 5 days thereafter. To assess the effect of perturbing p38 MAPK signaling on S. pneumoniae-induced lethality in Cyld^−/− mice, Cyld^−/− mice were pretreated with the p38 inhibitor SB203580 (10 mg/kg, intraperitoneally in Cyld^−/− mice) 2 hours before S. pneumoniae inoculation, and mice were then intratracheally inoculated with S. pneumoniae. To determine the effect of administration of exogenous PAI-1 on S. pneumoniae-induced lethality, mice were intratracheally administered with mouse rPAI-1 (12.5 μg/mouse) or saline as control, followed by S. pneumoniae and PLY inoculation 1 day after PAI-1 administration. For PAI-1 neutralization in Cyld^−/− mice, Cyld^−/− mice were intraperitoneally injected with α-PAI-1 mAb (25 μg/mouse for histological analysis and 50 μg/mouse for lethality) 2 hours before S. pneumoniae inoculation. Mouse IgG was used as control. […] Lung tissues were then subjected to histological analysis and total mRNA and protein extraction. In all Examples, saline was used as a control unless otherwise specified.
To assess the effect of perturbing NF-κB signaling on S.p.-induced lethality in Cyld^−/− mice, Cyld^−/− mice were pretreated with the IKK inhibitor Wedelolactone (10 mg/kg, intraperitoneally) 2 hours before S.p. inoculation, and mice were then intratracheally inoculated with S.p.
(§2) Differences in survival between wild-type, Cyld-deficient (“Cyld^−/−”), Mkk3-deficient (“Mkk3^−/−”), and PAI/−/−deficient (“PAI-1^−/−”) mice after saline, S. pneumoniae, S. pneumoniae lysate, and/or pneumolysin inoculation with or without SB203580, rPAI-1, or α-PAI-1 mAb were determined by Kaplan-Meier analysis. All tests were performed using SPSS14.0 software (SPSS Inc.). All in vivo survival rate data were evaluated by Log Lank test. All other in vivo and in vitro data were evaluated by Student t-test. Statistical significance was accepted at a value of p<0.05.

The test system of data set [2] is CYLD. Kind of data set: CYLD expression up-regulation by bacterial agonists for TLR2.
Data set [3] has as its target T1, TRAF7, Q6Q0C0.
T1 chain: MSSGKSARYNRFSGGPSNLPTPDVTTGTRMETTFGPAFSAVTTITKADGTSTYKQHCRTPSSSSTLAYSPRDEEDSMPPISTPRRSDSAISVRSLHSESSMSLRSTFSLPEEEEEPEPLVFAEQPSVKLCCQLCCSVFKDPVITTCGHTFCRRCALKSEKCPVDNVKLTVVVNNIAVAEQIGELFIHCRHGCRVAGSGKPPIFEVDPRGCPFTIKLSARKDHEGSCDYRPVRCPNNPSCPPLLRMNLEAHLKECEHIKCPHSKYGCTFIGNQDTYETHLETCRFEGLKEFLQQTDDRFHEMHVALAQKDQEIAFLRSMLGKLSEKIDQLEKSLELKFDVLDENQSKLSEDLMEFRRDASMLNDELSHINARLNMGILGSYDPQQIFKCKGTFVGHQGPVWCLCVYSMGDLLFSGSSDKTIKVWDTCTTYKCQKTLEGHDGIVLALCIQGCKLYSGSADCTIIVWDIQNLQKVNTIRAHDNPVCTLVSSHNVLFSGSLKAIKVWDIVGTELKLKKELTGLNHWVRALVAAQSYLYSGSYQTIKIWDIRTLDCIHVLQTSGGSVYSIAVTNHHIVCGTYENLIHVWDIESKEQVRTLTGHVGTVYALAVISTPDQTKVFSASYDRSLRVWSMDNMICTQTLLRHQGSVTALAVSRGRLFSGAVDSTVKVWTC

Data set [4] has as its target T2, tumor necrosis factor receptor-associated factor 6, Q9Y4K3.
T2 chain: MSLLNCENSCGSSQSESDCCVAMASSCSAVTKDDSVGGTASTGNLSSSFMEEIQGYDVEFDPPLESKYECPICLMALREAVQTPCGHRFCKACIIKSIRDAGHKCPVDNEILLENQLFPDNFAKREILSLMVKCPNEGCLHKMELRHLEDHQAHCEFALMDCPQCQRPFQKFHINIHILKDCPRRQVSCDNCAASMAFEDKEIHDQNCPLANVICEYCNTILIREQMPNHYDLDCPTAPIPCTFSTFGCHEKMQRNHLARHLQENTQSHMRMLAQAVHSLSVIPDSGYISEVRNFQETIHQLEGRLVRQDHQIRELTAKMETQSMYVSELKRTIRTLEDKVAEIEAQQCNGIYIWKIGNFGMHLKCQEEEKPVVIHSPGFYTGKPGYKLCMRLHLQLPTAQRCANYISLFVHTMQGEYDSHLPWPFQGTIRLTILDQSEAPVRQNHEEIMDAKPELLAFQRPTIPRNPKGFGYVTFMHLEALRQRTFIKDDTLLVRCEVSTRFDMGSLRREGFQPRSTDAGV

Data set [5] has as its system wild type mice. Kind of data set: Survival of wild type mice inoculated with S. pneumoniae D39 lysate or PLY after rPAI-1 pre-administration. The data set is classed as in vivo, mouse. The note with it: for mortality rate / lethality in mice inoculated with S. pneumoniae: rPAI-1 12.5 μg/mouse intratracheally 1 day before S. pneumoniae D39 lysate. The procedure: as §1
Differences in survival between wild-type, Cyld-deficient (“Cyld^−/−”), Mkk3-deficient (“Mkk3^−/−”), and PAI/−/−deficient (“PAI-1^−/−”) mice after saline, S. pneumoniae, S. pneumoniae lysate, and/or pneumolysin inoculation with or without SB203580, rPAI-1, or α-PAI-1 mAb were determined by Kaplan-Meier analysis. All tests were performed using SPSS14.0 software (SPSS Inc.). All in vivo survival rate data were evaluated by Log Lank test. All other in vivo and in vitro data were evaluated by Student t-test. […]

Data set [6] deals with wild type mice. Description: Pathological and histological analysis of lungs (alveolar hemorrhage) of wild type mice. It counts as in vivo, mouse. Particulars: wild type mice inoculated with rPAI-1. The procedure: For S. pneumoniae-induced lethal infections in wild type, Cyld^−/−, Mkk3^−/−, and PAI-1^−/− mice, anaesthetized mice were intratracheally inoculated with live S. pneumoniae, S. pneumoniae wild type or pneumolysin mutant lysate, or pneumolysin (“PLY”), at a concentration of 5×10^7CFU per mouse for live bacteria and bacterial lysate and 200 ng/mouse for PLY in all experiments unless otherwise indicated, and saline was inoculated as control. The mice were monitored for lethality every 2 hours for the first 12 hours and every 12 hours for 5 days thereafter. To assess the effect of perturbing p38 MAPK signaling on S. pneumoniae-induced lethality in Cyld^−/− mice, Cyld^−/− mice were pretreated with the p38 inhibitor SB203580 (10 mg/kg, intraperitoneally in Cyld^−/− mice) 2 hours before S. pneumoniae inoculation, and mice were then intratracheally inoculated with S. pneumoniae. […]
For histological analysis, dissected lungs were fixed with 10% buffered neutral formalin overnight with rocking followed by routine processing, embedded in paraffin, and sectioned at about 4 μm thickness. […] H&E-stained lung tissue slides were evaluated by light microscopy using Axiovert 40 CFL (Carl Zeiss), and images were recorded with an AxioCam MRC (Carl Zeiss).

Data set [7] deals with Tlr4−/− mice. Kind of data set: Survival of Tlr4-deficient mice after pneumolysin inoculation with or without rPAI-1 pre-administration. Particulars: intratracheal PLY with mouse rPAI-1 pre-administration. It counts as in vivo. How it is done: as §2
To further determine whether exogenous rPAI-1 also reduces mortality rate in Tlr4^−/− mice, Tlr4^−/− mice were intratracheally inoculated with PLY with or without mouse rPAI-1 pre-administration, and viability was assessed.

For data set [8] the following is noted: mouse, in vivo, 0.6 mg/kg. How it is done:
The efficacy of intratracheal administration of rPAI-1 was evaluated by assessing the presence and function of recombinant PAI-1 in mice. It was first determined whether exogenous PAI-1 is evenly distributed in the lungs of mice after intratracheal inoculation of recombinant stable PAI-1. Recombinant stable wild-type PAI-1 was first labeled with fluorescent dyes using an Alexa Flour 488 protein-labeling kit (Molecular Probes, Eugene, Oreg.) (Herbein & Wright, “Enhanced Clearance of Surfactant Protein D During LPS-induced Acute Inflammation in Rat Lung,” Am. J. Physiol. Lung Cell. Mol. Physiol. 281:L268-L277 (2001), which is hereby incorporated by reference in its entirety). Alexa dyes were selected because their magnitude of fluorescence is constant from pH 4 to 10 and they have a low level of photobleaching compared with similar fluorescent dyes used for protein labeling. […]
To determine whether the exogenously inoculated rPAI-1 is also functional, the in vivo functional activity of intratracheally inoculated rPAI-1 was measured in lungs of mice using ELISA kits from Molecular Innovations. […]

On to `COc1cc(O)c2c(c1)oc(=O)c1c3cc(O)c(O)cc3oc21` [Wedelolactone], for which, in data set [1], the survival rate result was “did not greatly alter the survival rate”.
Consider peptidoglycan, for which the CYLD expression entry in data set [2] is on record as “up-regulated”.
Still for that read-out and setting: then MALP-2, with “up-regulated”; and Pam3CSK4, with “up-regulated”.

B1: deubiquitinating enzyme CYLD (protein)
chain: MSSGLWSQEKVTSPYWEERIFYLLLQECSVTDKQTQKLLKVPKGSIGQYIQDRSVGHSRIPSAKGKKNQIGLKILEQPHAVLFVDEKDVVEINEKFTELLLAITNCEERFSLFKNRNRLSKGLQIDVGCPVKVQLRSGEEKFPGVVRFRGPLLAERTVSGIFFGVELLEEGRGQGFTDGVYQGKQLFQCDEDCGVFVALDKLELIEDDDTALESDYAGPGDTMQVELPPLEINSRVSLKVGETIESGTVIFCDVLPGKESLGYFVGVDMDNPIGNWDGRFDGVQLCSFACVESTILLHINDIIPALSESVTQERRPPKLAFMSRGVGDKGSSSHNKPKATGSTSDPGNRNRSELFYTLNGSSVDSQPQSKSKNTWYIDEVAEDPAKSLTEISTDFDRSSPPLQPPPVNSLTTENRFHSLPFSLTKMPNTNGSIGHSPLSLSAQSVMEELNTAPVQESPPLAMPPGNSHGLEVGSLAEVKENPPFYGVIRWIGQPPGLNEVLAGLELEDECAGCTDGTFRGTRYFTCALKKALFVKLKSCRPDSRFASLQPVSNQIERCNSLAFGGYLSEVVEENTPPKMEKEGLEIMIGKKKGIQGHYNSCYLDSTLFCLFAFSSVLDTVLLRPKEKNDVEYYSETQELLRTEIVNPLRIYGYVCATKIMKLRKILEKVEAASGFTSEEKDPEEFLNILFHHILRVEPLLKIRSAGQKVQDCYFYQIFMEKNEKVGVPTIQQLLEWSFINSNLKFAEAPSCLIIQMPRFGKDFKLFKKIFPSLELNITDLLEDTPRQCRICGGLAMYECRECYDDPDISAGKIKQFCKTCNTQVHLHPKRLNHKYNPVSLPKDLPDWDWRHGCIPCQNMELFAVLCIETSHYVAFVKYGKDDSAWLFFDSMADRDGGQNGFNIPQVTPCPEVGEYLKMSLEDLHSLDSRRIQGCARRLLCDAYMCMYQSPTMSLYK
Consider B1, for which, in data set [3], the NTHi-induced inflammatory response result was “CYLD inhibition of this inflammatory response was achieved via deubiquitinating TRAF6 and TRAF7”; the “ubiquitination of TRAF7” value is “Overexpression of WT CYLD reduced, whereas siRNA knock-down of CYLD enhanced, the ubiquitination of TRAF6 and TRAF7”. In data set [4], the NTHi-induced inflammatory response entry is “CYLD inhibition of this inflammatory response was achieved via deubiquitinating TRAF6 and TRAF7”; the “ubiquitination of TRAF6” value is “Overexpression of WT CYLD reduced, whereas siRNA knock-down of CYLD enhanced, the ubiquitination of TRAF6 and TRAF7”.

B2: rPAI-1: mouse recombinant plasminogen activator inhibitor-1, purchased from Calbiochem; Example 20 uses recombinant stable wild-type PAI-1 (protein, UniProt P22777 23-402, looked up)
Plasminogen activator …: TLPLRESHTAHQATDFGVKVFQQVVQASKDRNVVFSPYGVSSVLAMLQMTTAGKTRRQIQDAMGFKVNEKGTAHALRQLSKELMGPWNKNEISTADAIFVQRDLELVQGFMPHFFKLFQTMVKQVDFSEVERARFIINDWVERHTKGMINDLLAKGAVDELTRLVLVNALYFSGQWKTPFLEASTHQRLFHKSDGSTVSVPMMAQSNKFNYTEFTTPDGLEYDVVELPYQRDTLSMFIAAPFEKDVHLSALTNILDAELIRQWKGNMTRLPRLLILPKFSLETEVDLRGPLEKLGMPDMFSATLADFTSLSDQEQLSVAQALQKVRIEVNESGTVASSSTAFVISARMAPTEMVIDRSFLFVVRHNPTETILFMGQVMEP
For the molecule B2, the “mortality rate / lethality in mice inoculated with S. pneumoniae” value in data set [5] is given as “greatly reduced the mortality rate”; in data set [5] (listed as recombinant PAI-1), “protected mice from S.p.-induced lethality”. Further, in data set [5] (rPAI-1 12.5 μg/mouse intratracheally 1 day before pneumolysin), the “mortality rate in mice inoculated with PLY” value is recorded as “greatly reduced the mortality rate”. The PLY-induced alveolar hemorrhage result in data set [6] is recorded as “prevented”. In addition, the “S. pneumoniae-induced alveolar (lung) hemorrhage” value in data set [6] was “prevented”. Moreover, the “protection from lethal PLY challenge (viability)” value in data set [7] is recorded as “fully protected mice from lethal challenge”. For the same molecule, in data set [8], the “distribution of intratracheally inoculated rPAI-1 in the lungs” value was “widely distributed in the lungs”.
